Numbering of substitutions follows the chain as printed. Values joined by “and” are separate entries in the source; they are usually repeats but may differ in a detail not shown here. Identical values can stand only once.
How the values were obtained:
human CD73 on cells [1] = target: T1, human CD73 on cells (human, UniProt P21589 27-549); assay: cell-based or functional assay
T1 sequence: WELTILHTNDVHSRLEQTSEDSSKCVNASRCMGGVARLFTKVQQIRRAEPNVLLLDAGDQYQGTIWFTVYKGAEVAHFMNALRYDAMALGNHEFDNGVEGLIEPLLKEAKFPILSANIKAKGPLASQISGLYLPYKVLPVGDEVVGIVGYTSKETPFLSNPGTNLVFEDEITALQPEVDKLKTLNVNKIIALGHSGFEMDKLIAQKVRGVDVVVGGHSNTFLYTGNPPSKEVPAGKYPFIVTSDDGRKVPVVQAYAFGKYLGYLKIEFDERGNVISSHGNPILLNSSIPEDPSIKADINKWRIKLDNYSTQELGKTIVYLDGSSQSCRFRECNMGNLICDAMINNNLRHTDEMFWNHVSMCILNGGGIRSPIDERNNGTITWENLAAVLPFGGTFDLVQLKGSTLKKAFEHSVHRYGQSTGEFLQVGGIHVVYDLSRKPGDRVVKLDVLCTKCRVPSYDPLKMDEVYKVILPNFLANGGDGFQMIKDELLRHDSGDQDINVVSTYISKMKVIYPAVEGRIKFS

[2] = target: T2, cynomolgus CD73 on transfected CHO cells (cynomolgus, UniProt P21589 27-549 (human entry)); assay: flow cytometry, CHO-cynoCD73 cells
T2 construct: also called CHO-cynoCD73; CHO-Cynomolgus CD73 transfectants
T2 chain: T1 sequence with M199T, T350A, V466I
Description: (§1) Titration binding curves were produced with CD73 antibodies on Calu6 (CD73 endogenous expressors; human pulmonary adenocarcinoma cell line), DMS114 (CD73 negative; human small cell lung cancer cell line), CHO-cynoCD73 (cynoCD73-transfected) and CHO-K1 (cynoCD73 negative), cells using Alexa Fluor® 647 Goat Anti-Human IgG (H+L) as a secondary antibody, Invitrogen Cat#A-21445, using the following method: 100000 cells were plated in 100 uL PBS+2% FBS per well and blocked for 20 min. Using a U-bottom 96-deep well plate, volumes of antibody and PBS+2% FBS were combined as dictated by Table 12 below.
(§2) An 8-point serial dilution was performed by diluting a sixth of the volume (90 uL) into […], PBS+2% FBS. The cell plate was spun down for 5 minutes at 1500 rpm. 100 uL of diluted antibody was added per well of the plate. 100 uL PBS+2% FBS were added to all other wells. […] The plates were spun down at 1500 rpm for 5 min and washed in 200 uL PBS+2% FBS per well. The plates were washed again, resuspended in 200 uL 2% FBS in PBS per well and the samples were run.

[3] = target: T3, N-hCD73-his (N-terminal domain of human CD73, residues 26-336, His tag) (human, UniProt P21589 26-336); assay: SPR, mAb captured on protein A
T3 sequence: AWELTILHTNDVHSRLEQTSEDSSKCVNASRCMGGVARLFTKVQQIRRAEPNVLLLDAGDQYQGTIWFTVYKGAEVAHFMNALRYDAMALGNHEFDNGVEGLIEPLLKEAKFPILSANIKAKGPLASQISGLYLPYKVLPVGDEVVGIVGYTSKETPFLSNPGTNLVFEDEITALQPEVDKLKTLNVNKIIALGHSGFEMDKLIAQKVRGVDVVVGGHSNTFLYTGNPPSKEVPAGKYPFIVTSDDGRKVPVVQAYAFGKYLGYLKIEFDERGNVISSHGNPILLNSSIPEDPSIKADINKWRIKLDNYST
Description: (§3) For these experiments, protein A (Pierce) was immobilized to a density of 3000-4000 RU on flow cells 1-4 of a CM5 sensor chip (GE Healthcare) using standard ethyl(dimethylaminopropyl) carbodiimide (EDC)/N-hydroxysuccinimide […] chemistry, with ethanolamine blocking, in a running buffer of 0.01 M HEPES pH 7.4, 0.15 M NaCl, 3 mM EDTA, 0.005% v/v tween 20. […] The running buffer for the kinetic experiments was 10 mM sodium phosphate, 130 mM sodium chloride, 0.05% tween 20, pH 7.1. The surfaces were regenerated after each cycle using two 30 s pulses of 10 mM glycine pH 1.5 at a flow rate of 30 μl/min. Sensogram data was double-referenced and then fitted to a 1:1 Langmuir model using Biacore T100 evaluation software v2.0.4, to determine the association rate constant (ka), the dissociation rate constant (kd), and the equilibrium dissociation constant (KD).

human CD73 on cells [4] = target: T1, human CD73 on cells; assay: cell-based or functional assay; remark: listed apart in the source
[5] = target: T3, N-hCD73-his (N-terminal domain of human …); assay: SPR, comparison of all IgG2 molecules
Description: as §3

[6] = target: T4, rhCD73 bound to his-tag magnet beads (human, UniProt P21589 27-547, limits assumed); assay: cell-based or functional assay
T4 sequence: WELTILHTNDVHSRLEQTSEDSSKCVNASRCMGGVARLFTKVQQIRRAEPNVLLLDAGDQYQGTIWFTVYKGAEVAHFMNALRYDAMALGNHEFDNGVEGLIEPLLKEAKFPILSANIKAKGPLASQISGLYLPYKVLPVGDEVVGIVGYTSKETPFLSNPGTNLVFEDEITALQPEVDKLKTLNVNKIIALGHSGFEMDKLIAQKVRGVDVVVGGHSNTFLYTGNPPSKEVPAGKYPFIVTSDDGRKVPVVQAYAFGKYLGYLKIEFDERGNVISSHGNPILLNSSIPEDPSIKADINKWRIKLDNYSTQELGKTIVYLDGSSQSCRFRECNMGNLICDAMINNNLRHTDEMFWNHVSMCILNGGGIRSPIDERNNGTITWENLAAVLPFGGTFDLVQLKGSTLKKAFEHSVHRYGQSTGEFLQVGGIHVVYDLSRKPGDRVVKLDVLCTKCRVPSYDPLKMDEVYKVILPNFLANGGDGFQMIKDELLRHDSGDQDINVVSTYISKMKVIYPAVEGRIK

human CD73 on cells [7] = target: T1, human CD73 on cells; assay: cell-based or functional assay; remark: listed apart in the source
human CD73 on cells [8] = target: T1, human CD73 on cells; assay: flow cytometry, FITC-mAb, human B cells, donor D329
Description: (§4) Binding of CD73.4 antibody to human B and T cells was also determined. Peripheral blood mononuclear cells (PBMC) were isolated with Lympholyte-H cell separation gradient media. […] Cells from both donors were pooled for the unstained and FMO (Fluorescence minus one) control samples.

human CD73 on cells [9] = target: T1, human CD73 on cells; assay: flow cytometry, Calu6 cells
Description: as §1, §2

human CD73 on cells [10] = target: T1, human CD73 on cells; assay: flow cytometry, FITC-mAb, human B cells, donor D316
Description: as §4

human CD73 on cells [11] = target: T1, human CD73 on cells; assay: flow cytometry, FITC-mAb, human T cells, donor D329
Description: as §4

human CD73 on cells [12] = target: T1, human CD73 on cells; assay: cell-based or functional assay; remark: listed apart in the source
human CD73 on cells [13] = target: T1, human CD73 on cells; assay: binding titration on Calu6 cells, average of 2-6 experiments
human CD73 on cells [14] = target: T1, human CD73 on cells; assay: flow cytometry, FITC-mAb, human T cells, donor D316
Description: as §4

[15] = target: T5, cyno CD73, Sino Biological Inc Cat#90192-C08H, bound to his-tag magnet beads (cynomolgus, UniProt P21589 27-547 (human entry)); assay: cell-based or functional assay
T5 chain: T4 sequence with M199T, T350A, V466I

B1: 11F11 (antibody, human IgG2, kappa, V domains shown)
VH: QVQLVESGGGVVQPGRSLRLSCATSGFTFSNYGMHWVRQAPGKGLEWVAVILYDGSNKYYPDSVKGRFTISRDNSKNTLYLQMNSLRAEDTAVYYCARGGSSWYPDSFDIWGQGTMVTVSS
VL: DIQMTQSPSSLSASVGDRVTITCRASQGISSWLAWYQQKPEKAPKSLIYAASSLQSGVPSRFSGSGSGTDFTLTISSLQPEDFATYYCQQYNSYPLTFGGGTKVEIKR
notes: Human IgG2; also called 11F11-2
Q: What does the source list for B1?
A: Ymax, cAMP HTRF assay (percent of 100 nM 11F11 control) (human CD73 on cells [1]): 76%; EC50 [2]: 0.58 nM; Kd [3]: 0.56 nM and 1.6 nM; EC50 (nM), high-content internalization assay, Calu6, 2 h (human CD73 on cells [4]): 0.58 nM; Ymax, high-content internalization assay (percent of 100 nM 11F11) (human CD73 on cells [4]): 98%; Kd [5]: 1.1 nM; EC50 (nM), inhibition of bead-bound human CD73 enzymatic activity [6]: 3.98 nM; EC50 SKMEL24 inhibition (human CD73 on cells [7]): 3.15 nM

B2: CD73.4-IgG2-C219S (antibody)
heavy: QVQLVESGGGVVQPGRSLRLSCAASGFTFSNYGMHWVRQAPGKGLEWVAVILYDGSNKYYPDSVKGRFTISRDNSKNTLYLQMNSLRAEDTAVYYCARGGSSWYPDSFDIWGQGTMVTVSSASTKGPSVFPLAPCSRSTSESTAALGCLVKDYFPEPVTVSWNSGALTSGVHTFPAVLQSSGLYSLSSVVTVPSSNFGTQTYTCNVDHKPSNTKVDKTVERKSCVECPPCPAPPVAGPSVFLFPPKPKDTLMISRTPEVTCVVVDVSHEDPEVQFNWYVDGVEVHNAKTKPREEQFNSTFRVVSVLTVVHQDWLNGKEYKCKVSNKGLPAPIEKTISKTKGQPREPQVYTLPPSREEMTKNQVSLTCLVKGFYPSDIAVEWESNGQPENNYKTTPPMLDSDGSFFLYSKLTVDKSRWQQGNVFSCSVMHEALHNHYTQKSLSLSPG
light: not shown
notes: also called CD73.4-IgG2CS; CD73.4-IgG2.3
Q: B2 was tested. Which IC50 (human CD73 on cells [8]) did it give?
A: 0.0777 nM

Q: What about the EC50 (human CD73 on cells [9]) of the same binder?
A: 0.49 nM

Q: What about the IC50 (human CD73 on cells [10]) of the same binder?
A: 0.159 nM

Q: What about the IC50 (human CD73 on cells [11]) of the same binder?
A: 0.135 nM

Q: And the “CD73 Inhibition EC50 (nM), cAMP assay, Calu6” value (human CD73 on cells [12])?
A: 1.56 nM and 1.78 nM

Q: And the EC50 (human CD73 on cells [13])?
A: 0.49 nM

Q: And the EC50 [2]?
A: 0.34 nM

Q: What about the “EC50 (nM), inhibition of bead-bound human CD73 enzymatic activity” value [6] of the same binder?
A: 2.72 nM

Q: What about the IC50 (human CD73 on cells [14]) of the same binder?
A: 0.18 nM

Q: What about the “EC50 (nM), enzymatic inhibition of cyno CD73 (bead-bound)” value [15] of the same binder?
A: 3.66 nM

Q: And the “EC50 Calu6 inhibition” value (human CD73 on cells [7])?
A: 0.34 nM
